B1: hSIA103 (antibody, human IgG1, kappa, V domains shown)
VH: QVQLVQSGAEVKKPGASVKVSCKASGYTFTDHAIHWVRQAPGQGLEWMGYISPGNGDIKYNEKFKDRVTMTADKSSSTAYMQLRSLRSDDTAVYFCKRSLLALDYWGQGTLVTVSS
VL: DIQMTQSPSSLSASVGDRVTITCKASQDVGTNIAWYQQKPGKAPKVLIYSASTRHTGVPSRFSGSGSGTDFTLTISSLQPEDFATYFCQQYSSFPLTFGQGTKVEIKR
B2: hSIA101 (antibody, human IgG1, kappa, V domains shown)
VH: EVQLVQSGAEVKKPGASVKVSCKASGYTFTDHAIHWVRQAPGQGLEWMGYFSPGNDDIKYNEKFRGRVTMTADKSSSTAYMELRSLRSDDTAVYFCKRSLSTPYWGQGTLVTVSS
VL: DIVMTQSPDSLAVSLGERATINCKSSQSLLNRGNHKNYLTWYQQKPGQPPKLLIYWASTRESGVPDRFSGSGSGTDFTLTISSLQAEDVAVYYCQNDYTYPYTFGQGTKVEIKR

Target: bovine submaxillary mucin (BSM) (bovine)
Assay: BSM ELISA on BSM-coated wells, periodate-sensitive signal (periodate-treated wells subtracted)

Row | Binder | EC50
1 | B1 | 1.8 nM
2 | B2 | 4.2 nM

From US20200000932A1
